The numbers were not newly measured in publication PMC3869910, which cites them from elsewhere.

As a reminder, the Kd is the equilibrium constant for the complex coming apart.

This data set deals with alpha-bungarotoxin (Bungarus multicinctus) (UniProt P60615).
UniProt P60615, sequence (P60615 22-95): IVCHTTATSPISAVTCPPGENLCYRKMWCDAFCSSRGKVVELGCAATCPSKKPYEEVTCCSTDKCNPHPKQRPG

Turning to “nicotinic acetylcholine receptor alpha1 (y-α1-ECD) ECD (from UniProt P02708)”, the Kd is 5 nM.
